The chains are these.
B1: WT G-CSF, purified, tag cleaved (ligand)
chain: TPLGPASSLPQSFLLKCLEQVRKIQGDGAALQEKLCATYKLCHPEELVLLGHSLGIPWAPLSSCPSQALQLAGCLSQLHSGLFLYQGLLQALEGISPELGPTLDTLQLDVADFATTIWQQMEELGMAPALQPTQGAMPAFASAFQRRAGGVLVASHLQSFLEVSYRVLRHLAQAAAENLYFQ
notes: also called G-CSFWT
B2: WT G-CSFR(Ig-CRH), purified, tag cleaved (receptor)
chain: GSMGCGHISVSAPIVHLGDPITASCIIKQNCSHLDPEPQILWRLGAELQPGGRQQRLSDGTQESIITLPHLNHTQAFLSCSLNWGNSLQILDQVELRAGYPPAIPHNLSCLMNLTTSSLICQWEPGPETHLPTSFTLKSFKSRGNCQTQGDSILDCVPKDGQSHCSIPRKHLLLYQNMGIWVQAENALGTSMSPQLCLDPMDVVKLEPPMLRTMDPSPEAAPPQAGCLQLSWEPWQPGLHINQKCELRHKPQRGEASWALVGPLPLEALQYELCGLLPATAYTLQIRCIRWPLPGHWSDWSPSLELRTTE
notes: also called G-CSFRWT; wild type G-CSFR ECD

The target of experiment [1] is T1, G-CSFR(Ig-CRH)E design 34, purified, tag cleaved (human, UniProt Q99062 26-331).
T1 construct: SPR protein; also called Design 34 G-CSFR(Ig-CRH)E
T1 chain: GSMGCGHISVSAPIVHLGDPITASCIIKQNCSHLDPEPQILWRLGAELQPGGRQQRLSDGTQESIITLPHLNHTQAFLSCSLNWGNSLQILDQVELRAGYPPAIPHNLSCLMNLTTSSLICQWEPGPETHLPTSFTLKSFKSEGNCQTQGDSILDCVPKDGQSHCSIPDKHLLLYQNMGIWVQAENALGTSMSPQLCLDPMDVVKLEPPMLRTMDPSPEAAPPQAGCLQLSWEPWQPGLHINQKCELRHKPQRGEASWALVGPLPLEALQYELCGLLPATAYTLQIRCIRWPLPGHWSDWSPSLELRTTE
The experiment is described as follows: SPR (Biacore T200), WT G-CSF vs design receptor; steady-state derived KD relative to steady-state WT:WT KD (larger = weaker). (In SPR one partner is held on a chip, and binding of the other changes the refractive index at the surface.)

In experiment [2] the target is T2, G-CSFR(Ig-CRH)E design 9, purified, tag cleaved (human, UniProt Q99062 26-331).
T2 construct: SPR protein; also called Design 9 G-CSFR(Ig-CRH)E
T2 chain: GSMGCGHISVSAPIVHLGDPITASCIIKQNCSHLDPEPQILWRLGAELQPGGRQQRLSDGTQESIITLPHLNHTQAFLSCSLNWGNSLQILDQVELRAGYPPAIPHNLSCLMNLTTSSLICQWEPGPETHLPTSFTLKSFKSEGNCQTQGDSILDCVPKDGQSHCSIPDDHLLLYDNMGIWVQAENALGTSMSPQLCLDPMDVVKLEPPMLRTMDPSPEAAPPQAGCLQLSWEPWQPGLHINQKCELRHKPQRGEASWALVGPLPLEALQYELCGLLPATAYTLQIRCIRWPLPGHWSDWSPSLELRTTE
The description is as above.

Experiment [3] concerns the target T3, G-CSFR(Ig-CRH)E design 35, purified, tag cleaved (human, UniProt Q99062 26-331).
T3 construct: SPR protein; also called Design #35 G-CSFR(Ig-CRH)E
T3 chain: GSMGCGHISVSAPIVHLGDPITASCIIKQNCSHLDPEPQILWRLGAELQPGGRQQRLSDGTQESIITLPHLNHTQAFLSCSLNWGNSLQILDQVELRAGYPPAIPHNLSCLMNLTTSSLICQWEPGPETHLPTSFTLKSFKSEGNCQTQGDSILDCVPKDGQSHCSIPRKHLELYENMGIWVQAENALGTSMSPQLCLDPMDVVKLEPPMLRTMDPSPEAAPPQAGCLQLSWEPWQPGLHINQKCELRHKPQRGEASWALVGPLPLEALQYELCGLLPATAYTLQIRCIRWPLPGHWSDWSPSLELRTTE
The experiment is described as follows: SPR (Biacore T200), WT G-CSF vs design receptor; KD relative to WT:WT control (larger = weaker).

The target in experiment [4] is T4, G-CSFR(Ig-CRH)E design 30, purified, tag cleaved (human, UniProt Q99062 26-331).
T4 construct: also called Design 30 G-CSFR(Ig-CRH)E
T4 chain: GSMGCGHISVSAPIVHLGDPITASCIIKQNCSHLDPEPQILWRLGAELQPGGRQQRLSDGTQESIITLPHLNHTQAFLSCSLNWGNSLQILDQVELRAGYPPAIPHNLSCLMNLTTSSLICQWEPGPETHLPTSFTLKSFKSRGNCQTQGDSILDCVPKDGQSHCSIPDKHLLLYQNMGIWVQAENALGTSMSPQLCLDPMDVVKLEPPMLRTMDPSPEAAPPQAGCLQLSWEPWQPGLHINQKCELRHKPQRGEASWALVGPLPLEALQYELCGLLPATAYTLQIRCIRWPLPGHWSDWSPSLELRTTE
The description is as above.

Experiment [5] deals with T1, G-CSFR(Ig-CRH)E design 34, purified, …. The experiment is described as follows: SPR (Biacore T200).
The target in experiment [6] is T2, G-CSFR(Ig-CRH)E design 9, purified, tag …. Briefly: SPR (Biacore T200).
Experiment [7] has as its target T4, G-CSFR(Ig-CRH)E design 30, purified, …. Briefly: SPR (Biacore T200).
For experiment [8], the target named is B1. The experiment is described as follows: SPR (Biacore T200, 25 C), kinetic fit, 1:1 Langmuir; range over independent experiments; lower end of the range over the WT:WT runs.
Experimental: The SPR binding assays were carried out on a Biacore T200 instrument (GE Healthcare, Mississauga, ON, Canada) with PBS-T (PBS+0.05% (v/v) Tween 20) running buffer at a temperature of 25° C. […] Designs were assessed in three different immobilization orientations.
(§1) Double-referenced sensorgrams from duplicate or triplicate repeat injections were analyzed using Biacore™ T200 Evaluation Software v3.0 and fit to the 1:1 Langmuir binding model.
(§2) Kinetic-derived affinity constants (KD) where obtained by fitting the association and dissociation phases of the curves. […] For the cases in which the kinetic parameters could not be fit an attempt was made to derive a steady state affinity constant.
In experiment [9] the target is T5, G-CSFR(Ig-CRH)E design 307, purified, tag cleaved (human, UniProt Q99062 26-331).
T5 construct: SPR protein; also called Design 307 G-CSFR(Ig-CRH)E
T5 chain: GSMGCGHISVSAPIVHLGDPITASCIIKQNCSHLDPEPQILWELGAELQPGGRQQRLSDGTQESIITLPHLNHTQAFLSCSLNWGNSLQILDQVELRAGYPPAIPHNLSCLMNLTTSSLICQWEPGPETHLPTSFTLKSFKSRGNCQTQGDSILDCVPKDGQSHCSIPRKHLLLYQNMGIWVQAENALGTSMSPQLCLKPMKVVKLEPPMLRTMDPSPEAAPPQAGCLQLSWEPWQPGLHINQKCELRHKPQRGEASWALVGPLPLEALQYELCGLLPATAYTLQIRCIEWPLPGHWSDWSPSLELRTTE
The experiment is described as follows: SPR (Biacore T200), G-CSFR(Ig-CRH)E amine-coupled, G-CSFE injected; steady-state derived KD relative to steady-state WT:WT KD.
Experimental: To determine binding affinity of G-CSFE to G-CSFRE the G-CSFRE mutant was captured by standard amine coupling as described by the manufacturer (GE LifeSciences). Briefly, immediately after EDC/NHS activation, a 5 μg/mL solution of G-CSFRE in 10 mM NaOAc, pH 5.0, was injected at a flow rate of 5 μL/min until a receptor density of ˜700-900 RU was reached. The remaining active groups were quenched by a 420 s injection of 1 M ethanolamine hydrochloride-NaOH pH 8.5 at 10 μL/min. Using single-cycle kinetics, six concentrations of a two-fold dilution series of the corresponding G-CSFE mutant starting at 200 nM with a blank buffer control were sequentially injected at 25 μL/min for 300s with a 1800s dissociation phase, resulting in a set of sensorgrams with a buffer blank reference. The same sample titration was also performed on a reference cell with no variants captured. The chip was regenerated to prepare for the next injection cycle by one pulse of 10 mM glycine/HCl, pH 2.0, for 30 s at 30 μL/min.
as §1, §2

In experiment [10] the target is B2. The experiment is described as follows: SPR (Biacore T200), WT G-CSFR(Ig-CRH) amine-coupled.

On to B1, for which the “KD fold change (vs WT:WT)” value in experiment [1] was 4260 fold; in experiment [2], 8810 fold; in experiment [3], 19 fold; in experiment [4], 774 fold. In addition, the “fold weaker affinity (vs WT:WT)” value in experiment [5], in [6] and in experiment [7] was 700 fold in each case.
A word on the Kd: it is the concentration at which binding is half-saturated. A high value points to a looser complex. As to B2, in [8], the Kd is 1.8 to 2.5 nM.

B3: G-CSFE design 307, purified, tag cleaved (ligand)
chain: TPLGPASSLPQEFLLDCLKQVRKIQGDGAALQEKLCATYKLCHPERLVLLGHSLGIPWAPLSSCPSQALQLAGCLSQLHSGLFLYQGLLQALEGISPELGPTLDTLQLDVADFATTIWQQMEELGMAPALQPTQGAMPAFASAFQRRAGGVLVASHLQSFLEVSYRVLRHLAQAAAENLYFQ
notes: also called 307 G-CSF
On to B3, for which the “KD fold change (vs WT:WT)” value in experiment [9] came out at 0.6 fold. Further, in experiment [10], the binding result is recorded as “no binding”.
